Data on one molecule can be found in patent US20130012916A1.

In assay [1] the target is vWF A1-domain (UniProt P04275). Description: SPR (Biacore 3000), vWF A1-domain on CM5 chip, parallel line analysis; first of two independent analyses.
The target in assay [2] is vWF A1-domain (UniProt P04275). Nature of the assay: SPR (Biacore 3000), vWF A1-domain on CM5 chip, parallel line analysis. For orientation: In SPR one partner is held on a chip, and binding of the other changes the refractive index at the surface.
The target of assay [3] is vWF A1-domain (UniProt P04275). Description: SPR (Biacore 3000), vWF A1-domain on CM5 chip, parallel line analysis; second of two independent analyses.

Several values for one entry are separate records, joined by “and”; a condition that tells them apart may be missing. Identical values can stand only once.

B1: Nanobody ALX0081sv1 (vWF0002) (VHH)
chain: DVQLVESGGGLVQPGGSLRLSCAASGRTFSYNPMGWFRQAPGKGRELVAAISRTGGSTYYPESVEGRFTISRDNAKRTVYLQMNSLRAEDTAVYYCAAAGVRAEQGRVRTLPSEYTFWGQGTQVTVSSAAAEVQLVESGGGLVQPGGSLRLSCAASGRTFSYNPMGWFRQAPGKGRELVAAISRTGGSTYYPESVEGRFTISRDNAKRTVYLQMNSLRAEDTAVYYCAAAGVRAEQGRVRTLPSEYTFWGQGTQVTVSS
For B1, the relative potency versus reference (non lyophilised, stored at -70 C) is 94.6% with vWF A1-domain [1]; 94.8% and 117% and 93.3% in the assay with vWF A1-domain [2]; 96.1% with vWF A1-domain [3].
